Data as given in the supplement of paper PMC9170038.

Tested on: MS2 coat protein
Assay: apparent KD of MS2 coat protein; designed switch direction (-1 OFF switch, 1 ON switch): -1; higher = weaker reporter binding
Outline: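 Designed RNA switches were transcribed on Illumina chips by stalled E. coli RNA polymerase and titrated with SNAP-549-labelled MS2 coat protein from 0.7 or 1.5 nM, doubling to 3 µM. Step length ran from 0.8–1.5 h at the lowest concentration to 10–20 min at the highest. The apparent KD is the median over clusters for each design, from curve-fitted normalised cluster fluorescence.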

[1] = Eterna round: R95, input ligand: FMN 200 uM
[2] = Eterna round: R95, input ligand: microRNA oligo, concentration not stated
[3] = Eterna round: R95, input ligand: none
[4] = input ligand: microRNA oligo, concentration not stated

Row | Sequence | apparent KD of MS2 coat protein [1] | apparent KD of MS2 coat protein [2] | apparent KD of MS2 coat protein [3] | apparent KD of MS2 coat protein (input ligand: FMN 200 uM) | apparent KD of MS2 coat protein (input ligand: none) | apparent KD of MS2 coat protein [4]
1 | UUUUUCGUUUAAGCUUCGUACAUGAGGAUCACCCAUGUUUUUAGUUCUGUGUUGGUCAGUAUGGAAGUUCGUCUUAU [JR_SV3TOV1_Sub089] (puzzle: Sensor v3, turn-off variant 1) | 325 nM | 166 nM | 371 nM |  |  | 
2 | GUCAGACGAGGAUAUAGAUUUGAUAACAUGAGGAUCACCCAUGUGAUCGAUAGAUCAGAUUUAGAAGGUGUCUGAC [E5/8-B3] (Eterna round: R97, puzzle: Exclusion 5) |  |  |  | 403 nM | 331 nM | 
3 | GAUUAUGCAGGCUUUAGGGACAUGAGGAUCACCCAUGUUCGUCUUAUUGAUCUAGGUACGCUGACGUACCUAGAUCU [JL-sv1-2.34 Brourd mod] (puzzle: Sensor v3, turn-off variant 1) | 19.3 nM | 42.5 nM | 20.4 nM |  |  | 
4 | GAAAAGAUAGGAUAUACAAGAAGAAAAGAAAAGAAAAGAAAACAUGAGGAUCACCCAUGUAGAAGGAUCAAAAG [Default title] (puzzle: Exclusion 2) | 15 nM | 13.5 nM | 15.5 nM |  |  | 
5 | GGCACACAUGAGGAUCACCCAUGUGAGGAUAUGUGGCGAUCGUCGAAAGACGAUAGCCAUAGAAGGCACAUGCC [Eli x1 4.08] (Eterna round: R97, puzzle: Exclusion 1) |  |  |  | 32.1 nM | 18.1 nM | 
6 | UGUACGAUGCGUGCUGACAUGCGUCGUGCAGCAGGUGUUACAUGAGGAUCACCCAUGUCCUCAUUUGCUCGUCUUGU [SL-sv3-2.09 JL mod] (puzzle: Sensor v3, turn-off variant 2) | 379 nM | 185 nM | 374 nM |  |  | 
7 | GACCCACAUGAGGAUCACCCAUGUCAGGAUAUGCAGUUGGAUGCGUCAGAUUUCCAUAGCAGAAGGGAUCUGGC [Eternabot (Original) Solution 14] (Eterna round: R97, puzzle: Exclusion 1) |  |  |  | 16.5 nM | 18.2 nM | 
8 | CUUUUGUGAGGAUAUCAGGUGUGCUAGCGUACUGGUACAUCUGAGAAGGCACAUGAGGAUCACCCAUGUUCCUU [JL-ex4-3.18 Brourd mod] (puzzle: Exclusion 4) |  | 13.5 nM |  |  |  | 
9 | CUCCGGCGUGUAGGAUAUGGUUCCGUUUCGGUUCCAGAAGGACAUGAGGAUCACCCAUGUGCCUGUCGUCGGUCGUCACCGGGC [salish99_ExNG1_r04_217] (Eterna round: R96, puzzle: Exclusion NG 1) |  |  |  | 17.8 nM | 15.4 nM | 10.3 nM
10 | CGAGAGCGAGGAUAUACACAACUCCUCACUGUCAAGAAAGGACAUGAGGAUCACCCAUGUAGAAGGUGCAAAAC [Quries] (puzzle: Exclusion 2) | 215 nM | 125 nM | 120 nM |  |  | 
11 | GUUAAACAUGAGGAUCACCCAUGUAAGGAUAUGCUGAGGUAGAGAUGAAGUGAAUGAAGCAGAAGGUACAAAUG [Mat - Mod of JL D64] (puzzle: Exclusion 1) | 51.5 nM | 83.2 nM | 113 nM |  |  | 
12 | GUUGGAUGAGGAUAUCGAGGUUAGUACAUGAGGAUCACCCAUGUUAUCCAGGUGUCGGUUCGAGAAGGCAUUGGAC [LRO-Ex5-14] (puzzle: Exclusion 5) |  | 32.9 nM |  |  |  | 
13 | AUUAAAACAUAGGAUAUCGAAUUUAUCAUUUAACGAGAAGGAUGAACAUGAGGAUCACCCAUGUGGUAUCAUGG [Mat - Exclusion 6 - JL Mod - D6] (puzzle: Exclusion 6) |  | 165 nM |  |  |  | 
14 | UCAAUUUUGCGAGGAUAUCGACCAUUCCUCUUUACAUGAGGAUCACCCAUGUACUUAUUCUACAACGAGAAGGCGCUCAUAGUU [JR_ExcNG2_Sub064] (Eterna round: R96, puzzle: Exclusion NG 2) |  |  |  |  |  | 30 nM
15 | GUAUAACUACACGGGCUCAACAUGAGGAUCACCCAUGUCUUAUACGCAAGCUUUUUGCUUGUCUUAUCUGUCCGUGA [Tibimaesan] (puzzle: Sensor v3, turn-off variant 1) | 12.6 nM | 11.9 nM | 12.3 nM |  |  | 
16 | AUUUUGUCAGGAUAUGAGUAGUAGGACGAAAGUGUUAUUAUUUAGAAGGGACAUGAGGAUCACCCAUGUUCCUC [Bring Us a Shrubbery-03] (Eterna round: R96, puzzle: Exclusion 4) |  |  |  | 13.9 nM | 13.7 nM | 10.7 nM
17 | GGCGCCUCAGGAUAUCAGUCUGGAUCAGAAAAGAUCCUGACUGAGAAGGGACAUGAGGAUCACCCAUGUUCGCC [Mat - Exclusion 4 - Eli Mod - D52] (Eterna round: R97, puzzle: Exclusion 4) |  |  |  | 17.3 nM | 18.4 nM | 
18 | ACACAGCGAGGAUAUACAUGAGGAUCACCCAUGUGGCGGCCGUUACGGUAGCACUAGUGUAGAAGGCGCAUUGG [EX3 #35] (Eterna round: R97, puzzle: Exclusion 3) |  |  |  | 155 nM | 192 nM | 
19 | CUCCUGCGAGGAUAUACAUAGUGACGUCUGUUUAAUCUUAAACAUGAGGAUCACCCAUGUAGAAGGUGCGUCAC [EX2 #82] (Eterna round: R97, puzzle: Exclusion 2) |  |  |  | 13.1 nM | 13.2 nM | 
20 | GCUGCGCGCUGUCGGGCGUCUGGUCUUGGAGGGAUAGACACAUGAGGAUCACCCAUGUUUCGGGUGUUCUUUCUAUA [JR_Sensorv2_tov2_Sub1512] (Eterna round: R96, puzzle: Sensor v2, turn-off variant 2) |  |  |  | 187 nM | 183 nM | 118 nM
21 | AGGUAACAUGAGGAUCACCCAUGUCAGGAUAUCAGUAAGAGGAGGAUAGAAUAGAGUAUGAGAAGGGACUAUAU [Excluse me! 23 - Jieux - Exclusion 1] (puzzle: Exclusion 1) | 48 nM | 40.7 nM | 47.8 nM |  |  | 
22 | CCGUUGGUAGGAUAUCCAACGAUAUACUUGAGGAUCACCCAAGUCCGUAGGGCGUUCGAAGGAGAAGGGCUGAUGG [Zaisaat] (Eterna round: R97, puzzle: Exclusion 5) |  |  |  | 120 nM | 108 nM | 
23 | GUAACAUGCUGGUGAUCAUACAUGAGGAUCACCCAUGUAACAAGCUUUUUGUUCGUCUUAAUUUAAUUGAUUACUAG [Stov1/8-B2] (Eterna round: R97, puzzle: Sensor, turn-off variant 1) |  |  |  | 202 nM | 196 nM | 
24 | UUUUAACAAGCGAGGUCCUACAUGAGGAUCACCCAUGUAUGUCAUGGAUUCCAUGGUCUUUUUGCUCGUCUUGUGUG [jl TITIN mod 8] (Eterna round: R97, puzzle: Sensor, turn-off variant 1) |  |  |  | 103 nM | 105 nM | 
25 | CCUCAGGCGGAGGAUAUCUAACAACAAUAACAAAGAGAAGGCCGCACAUGAGGAUCACCCAUGUGUAUGGGCCG [Bitierre] (puzzle: Exclusion 6) |  | 13.1 nM |  |  |  | 
26 | UCACGUACAGGAUAUACAUGAGGAUCACCCAUGUGCUCGAAGGCACGCCCGAGAUUCUGUAGAAGGGUAUAGCA [Eternabot (L1) Solution 50] (Eterna round: R97, puzzle: Exclusion 3) |  |  |  | 38.4 nM | 32.5 nM | 
